Test [1] addresses T1, recombinant SHP-2 protein ( (human SHP-2 cloned for the …, UniProt Q06124 1-593)).
T1 construct: SHP-2 (PTPN11); the in-house construct holds the protein coding region of human SHP-2 in pGEX-6P-1
T1 sequence (looked up): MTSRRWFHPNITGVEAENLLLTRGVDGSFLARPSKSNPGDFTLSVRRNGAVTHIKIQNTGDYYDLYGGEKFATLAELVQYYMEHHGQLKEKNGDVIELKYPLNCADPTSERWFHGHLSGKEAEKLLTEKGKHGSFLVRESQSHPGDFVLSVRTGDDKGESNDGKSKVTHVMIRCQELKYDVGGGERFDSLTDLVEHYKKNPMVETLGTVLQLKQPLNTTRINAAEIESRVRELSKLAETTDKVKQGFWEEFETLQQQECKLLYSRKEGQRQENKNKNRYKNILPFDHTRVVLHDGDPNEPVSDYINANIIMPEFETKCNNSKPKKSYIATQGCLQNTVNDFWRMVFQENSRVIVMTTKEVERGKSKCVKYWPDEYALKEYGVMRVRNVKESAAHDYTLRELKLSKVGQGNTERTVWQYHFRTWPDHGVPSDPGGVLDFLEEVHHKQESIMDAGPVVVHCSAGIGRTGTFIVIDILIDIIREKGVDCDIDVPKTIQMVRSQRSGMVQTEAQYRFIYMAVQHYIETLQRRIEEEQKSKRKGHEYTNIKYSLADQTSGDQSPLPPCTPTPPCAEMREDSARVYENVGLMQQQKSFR
Nature of the test: bead-based flow cytometric binding assay; caveolin-1 (1–50) peptide conjugated to carboxyl beads with EDC; incubated with recombinant CSK or SHP-2 protein (1–10 µg) for 1 h at RT; detected with anti-CSK or anti-SHP-2 and fluorescent secondary antibody. The note with it: both partners purified. Background: A flow cytometer gives signals particle by particle.

In the next test the target is T2, recombinant CSK protein ( (human CSK cloned for the …, UniProt P41240 1-450)).
T2 construct: CSK; the in-house construct holds the protein coding region of human CSK in pGEX-6P-1
T2 sequence (P41240 whole entry): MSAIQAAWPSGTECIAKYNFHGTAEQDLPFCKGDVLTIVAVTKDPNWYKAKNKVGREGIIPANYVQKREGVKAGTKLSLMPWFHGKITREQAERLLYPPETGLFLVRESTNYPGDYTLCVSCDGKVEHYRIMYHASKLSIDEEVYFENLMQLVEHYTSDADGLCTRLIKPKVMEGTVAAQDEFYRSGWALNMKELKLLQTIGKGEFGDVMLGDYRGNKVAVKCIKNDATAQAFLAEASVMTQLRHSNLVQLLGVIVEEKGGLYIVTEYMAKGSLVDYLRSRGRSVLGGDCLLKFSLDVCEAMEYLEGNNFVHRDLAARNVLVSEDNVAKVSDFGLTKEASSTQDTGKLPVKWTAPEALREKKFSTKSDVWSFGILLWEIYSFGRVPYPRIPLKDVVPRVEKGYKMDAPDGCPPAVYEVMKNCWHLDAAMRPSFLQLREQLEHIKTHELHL
The test is described as above. The following applies: both partners purified.

We go through 1 molecule from paper PMC3954793, “SHP-2 Binds to Caveolin-1 and Regulates Src Activity via Competitive Inhibition of CSK in Response to H2O2 in Astrocytes” (PLoS ONE, 2014).

Ends that are not written are not given here.

B1: 1–50 mer caveolin-1 peptide (peptide, UniProt Q03135 1-50, looked up)
peptide: MSGGKYVDSEGHLYTVPIREQGNIYKPNNKAMADELSEKQVYDAHTKEID
modifications: not fully specified
notes: caveolin-1 residues 1-50, fifty-amino acid-long synthetic peptide; Conjugated to carboxyl beads with EDC; also called caveolin-1 peptide (1–50); p-caveolin-1 peptide; source: synthetic peptide (PEPTRON)
As for B1, the binding result (in test [1]; with recombinant CSK protein) was “binds” in each case.
